Drawing on article PMC3564804, this text covers binding signal (fluorescence ratio) for two sequences.

Read-outs that look alike come from different tables or passages of the source.

Data set [1] addresses DS-PrPRes (Gdn-HCl treated PrPRes) (UniProt P04156).
In a further data set the target is PrPRes, native state (UniProt P04156).

Consider CTTACGGTGGGGCAATT [Apt1], for which the binding signal (fluorescence ratio) in data set [1] (5'-NH2) stood at 4.74; with PrPRes, native state (5'-NH2), 1.69.

In the case of “GTTTTGTTACAGTTCGTTTCTTTTCCCTGTCTTGTTTTGTTGTCT [Apt2]”, the binding signal (fluorescence ratio) in data set [1] (5'-biotin) came to 4.74; in the data set with PrPRes, native state (5'-biotin), 1.69.
